Measured values from doi:10.1101/2025.07.01.662498, “Automodification of N-terminal serine residues in PARP2 impacts PARP2 release from DNA damage sites”.

Target: PARP2 WT (human, UniProt Q9UGN5 1-583)
Assay: fluorescence polarization; HPF1 not mentioned for this value; 10 mM HEPES pH 8.0, 150 mM NaCl, 0.1 mg/ml BSA, 0.1 mM TCEP, 0.1 mM EDTA, 25 C (FP)
Conditions: protein: recombinant; tags: His6-TEV, tag cleaved; nicked dumbbell: two hairpins with TTTT loops, one strand

Sequence of PARP2 WT (Q9UGN5 whole entry): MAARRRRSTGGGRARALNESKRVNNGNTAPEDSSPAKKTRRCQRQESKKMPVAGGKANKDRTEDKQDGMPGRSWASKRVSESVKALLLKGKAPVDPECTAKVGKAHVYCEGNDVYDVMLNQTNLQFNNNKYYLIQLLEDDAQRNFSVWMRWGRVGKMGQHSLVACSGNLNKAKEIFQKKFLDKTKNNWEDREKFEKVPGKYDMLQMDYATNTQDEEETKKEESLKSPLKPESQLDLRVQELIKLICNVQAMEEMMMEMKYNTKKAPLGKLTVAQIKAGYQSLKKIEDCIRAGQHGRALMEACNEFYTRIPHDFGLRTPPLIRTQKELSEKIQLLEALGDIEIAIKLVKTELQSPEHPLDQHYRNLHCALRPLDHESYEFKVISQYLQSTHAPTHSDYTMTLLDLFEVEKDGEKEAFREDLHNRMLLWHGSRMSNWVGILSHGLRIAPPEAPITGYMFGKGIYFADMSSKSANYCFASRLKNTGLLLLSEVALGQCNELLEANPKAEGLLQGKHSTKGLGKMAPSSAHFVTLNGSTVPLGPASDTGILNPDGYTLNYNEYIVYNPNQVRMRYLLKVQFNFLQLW

B1: fluorescein-labelled nicked dumbbell DNA, 5'-phosphate (structured_DNA)
DNA: GGAAGTCTTTTGACTTCCTCGAAGCTTTTGCTTCGA
modifications: 5'-phosphate
Kd: 4.8 ± 2.9 nM
